From paper doi:10.1101/515924 (bioRxiv, 2019)

Biological target: His×6-Okp1 (budding yeast, UniProt P53298 1-406)
Assay: pull-down

His×6-Okp1, sequence (P53298 whole entry): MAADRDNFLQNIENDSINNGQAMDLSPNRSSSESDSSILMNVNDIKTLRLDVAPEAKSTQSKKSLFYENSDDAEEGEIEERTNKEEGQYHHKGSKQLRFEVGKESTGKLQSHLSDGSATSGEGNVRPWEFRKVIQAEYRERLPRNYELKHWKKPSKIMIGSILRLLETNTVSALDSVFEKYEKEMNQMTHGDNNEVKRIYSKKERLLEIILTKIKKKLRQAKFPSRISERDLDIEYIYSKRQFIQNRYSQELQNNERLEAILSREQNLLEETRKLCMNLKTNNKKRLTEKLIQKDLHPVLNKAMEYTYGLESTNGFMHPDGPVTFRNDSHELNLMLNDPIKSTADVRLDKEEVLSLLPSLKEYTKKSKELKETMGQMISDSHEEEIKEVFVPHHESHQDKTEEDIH

B1: GST-Sli15 (1-401) (domain or fragment)
chain: MDWAIKAARKKTQRKPGSTRSIIETLDDLNNLTTDAHSEINQRLYESSEWLRNNVYMNTLKYEDKKMEESLISPENTHNKMDVEFPKMKGEYELSNSQNDAAKDVTKTPRNGLHNDKSITPKSLRRKEVTEGMNRFSIHDTNKSPVEPLNSVKVDANESEKSSPWSPYKVEKVLRESSKTSESPINTKRFDNQTWAAKEEMENEPILQALKKAESVKVKPPPNSGIARSQRRSNMFVPLPNKDPLIIQHIPPTKSSGSIPKVRTVKESPIAFKKKSTINSPAIRAVENSDTAGSTKASSVFDRLSSIPTKSFENKISRGNVGHKYSSSSIDLTGSPMKKVSQKFKSINSTDTDMQEALRDIFSVKNKITKNNSPKGKNSRKSSIPRFDKTSLKLTTHKKLA
binding result: binds
